B1: xPSM1.A10-3 (ssRNA)
RNA: GGGAGGACGAUGCGGAUCAGCCAUGUUUACGUCACUCCUUGUCAAUCCUCAUCGGC
modifications: 2'-F all pyrimidines; purines 2'-OH
B2: xPSM1.A10-4 (ssRNA)
RNA: GGGAGGACGAUGCGGAUCAGCCAUGUUUACGUCACUCCUUGUCAAUCCUCA
modifications: 2'-F all pyrimidines; purines 2'-OH
B3: xPSM1.A9-1 (ssRNA)
RNA: GGGAGGACGAUGCGGACCGAAAAAGACCUGACUUCUAUACUAAGUCUACGUUCCCAGACGACUCG
modifications: 2'-F all pyrimidines; purines 2'-OH
B4: xPSM1.A9-2 (ssRNA)
RNA: GGGAGGACGAUGCGGACCGAAAAAGACCUGACUUCUAUACUAAGUCUACGUUCCCAGACG
modifications: 2'-F all pyrimidines; purines 2'-OH
B5: xPSM-A10 (62-A10) (ssRNA)
RNA: GGGAGGACGAUGCGGAUCAGCCAUGUUUACGUCACUCCUUGUCAAUCCUCAUCGGCAGACGACUCGCCCGA
modifications: 2'-F all pyrimidines; purines 2'-OH
B6: xPSM1.A9-3 (ssRNA)
RNA: GGGAGGACGAUGCGGACCGAAAAAGACCUGACUUCUAUACUAAGUCUACGUUCCC
modifications: 2'-F all pyrimidines; purines 2'-OH
B7: xPSM-A9 (ssRNA)
RNA: GGGAGGACGAUGCGGACCGAAAAAGACCUGACUUCUAUACUAAGUCUACGUUCCCAGACGACUCGCCCGA
modifications: 2'-F all pyrimidines; purines 2'-OH
B8: xPSM1.A10-1 (ssRNA)
RNA: GGGAGGACGAUGCGGAUCAGCCAUGUUUACGUCACUCCUUGUCAAUCCUCAUCGGCAGACGACUCG
modifications: 2'-F all pyrimidines; purines 2'-OH

Tests used:
Conditions in all cases: tags: S-tag fusion released by enterokinase; baculovirus Sf-9 secreted
[1] = target: T1, xPSM (extracellular portion of PSMA) (Homo sapiens (LNCaP cDNA), UniProt Q04609 Q04609:44-750); assay: inhibition; competitive NAALADase inhibition, +/-7.8 nM, 37 C
T1 sequence (Q04609 44-750, one chain of several): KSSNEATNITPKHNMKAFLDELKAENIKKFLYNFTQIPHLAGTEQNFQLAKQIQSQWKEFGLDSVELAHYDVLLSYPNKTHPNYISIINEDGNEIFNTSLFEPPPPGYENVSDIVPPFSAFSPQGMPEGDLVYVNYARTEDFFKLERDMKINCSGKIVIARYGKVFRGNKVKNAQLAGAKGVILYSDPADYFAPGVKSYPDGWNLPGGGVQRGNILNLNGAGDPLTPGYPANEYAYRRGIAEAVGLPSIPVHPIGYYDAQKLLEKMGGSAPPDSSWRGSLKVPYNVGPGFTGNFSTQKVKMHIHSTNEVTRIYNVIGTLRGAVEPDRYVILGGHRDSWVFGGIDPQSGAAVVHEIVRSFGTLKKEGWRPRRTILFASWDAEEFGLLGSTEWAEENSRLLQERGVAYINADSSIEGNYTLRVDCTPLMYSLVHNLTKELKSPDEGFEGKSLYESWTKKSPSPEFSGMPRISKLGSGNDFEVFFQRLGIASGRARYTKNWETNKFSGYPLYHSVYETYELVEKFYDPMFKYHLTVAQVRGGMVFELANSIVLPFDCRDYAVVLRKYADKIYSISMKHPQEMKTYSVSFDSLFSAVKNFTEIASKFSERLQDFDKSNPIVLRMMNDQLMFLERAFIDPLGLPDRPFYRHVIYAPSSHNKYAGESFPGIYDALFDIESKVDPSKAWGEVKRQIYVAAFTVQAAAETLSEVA
Procedure: (§1) NAAG hydrolysis was performed essentially as described in Robinson et al. (1987) J Biol Chem. 262:14498-506. LNCaP cell extracts were prepared by sonication in the presence of 50 mM Tris, pH 7.4, 0.5% Triton-X-100. Cell lysate or purified xPSM was incubated in the presence of the radiolabeled substrate N-acetyl-L-aspartyl-L-[3,4-³H]glutamate (NEN Life Science Products, Boston, Mass.) at 37° C. for 10-15 minutes. The reaction was stopped with an equal volume of ice-cold 100 mM sodium phosphate, 2 mM EDTA. Products were separated from intact substrate using anion exchange chromatography and quantitated by scintillation counting. […] In all cases less than 20% of substrate was cleaved.

[2] = target: T1, xPSM (extracellular portion of PSMA); assay: inhibition; NAALADase assay, 8 nM substrate, 37 C
Procedure: as §1

[3] = target: T1, xPSM (extracellular portion of PSMA); assay: inhibition; competitive NAALADase inhibition, 37 C
Procedure: as §1

[4] = target: T1, xPSM (extracellular portion of PSMA); assay: inhibition; noncompetitive NAALADase inhibition, 37 C
Procedure: as §1

Binder | IC50 [2] | other results
B1 | 50 nM | Ki [1]: 20.5 nM
GGGAGGACGAUGCGGACCGAAAAAGACCUGACUUCUAUACUAAGU (ssRNA, 2'-F all pyrimidines; purines 2'-OH) [xPSM1.A9-5] | > 300 nM | 
GGGAGGACGAUGCGGAUCAGCCAUGUUUACGUCACUCCUUGUCAAU (ssRNA, 2'-F all pyrimidines; purines 2'-OH) [xPSM1.A10-5] | > 700 nM | 
B2 | > 700 nM | 
GGGAGGACGAUGCGGACCGAAAAAGACCUGACUUCUAUACUAAGUCUACG (ssRNA, 2'-F all pyrimidines; purines 2'-OH) [xPSM1.A9-4] | > 300 nM | 
B3 | 8 nM | 
GGGAGGACGAUGCGGAUCAGCCAUGUUUACGUCACUCCUUG (ssRNA, 2'-F all pyrimidines; purines 2'-OH) [xPSM1.A10-6] | > 700 nM | 
B4 | 300 nM | 
B5 | 80 nM | Ki [3]: 11.9 nM
GGGAGGACGAUGCGGACCGAAAAAGACCUGACUUCUAUAC (ssRNA, 2'-F all pyrimidines; purines 2'-OH) [xPSM1.A9-6] | > 300 nM | 
B6 | > 300 nM | 
B7 | 5 nM | Ki [4]: 1.1 nM
B8 | 40 nM | 
